This experiment concerns the target M6P/IGF-IIR (Homo sapiens, UniProt P11717). Nature of the experiment: SPR. On the technique in general: SPR reads the build-up and loss of mass on a sensor chip optically.

M6P/IGF-IIR, sequence (P11717 41-2491): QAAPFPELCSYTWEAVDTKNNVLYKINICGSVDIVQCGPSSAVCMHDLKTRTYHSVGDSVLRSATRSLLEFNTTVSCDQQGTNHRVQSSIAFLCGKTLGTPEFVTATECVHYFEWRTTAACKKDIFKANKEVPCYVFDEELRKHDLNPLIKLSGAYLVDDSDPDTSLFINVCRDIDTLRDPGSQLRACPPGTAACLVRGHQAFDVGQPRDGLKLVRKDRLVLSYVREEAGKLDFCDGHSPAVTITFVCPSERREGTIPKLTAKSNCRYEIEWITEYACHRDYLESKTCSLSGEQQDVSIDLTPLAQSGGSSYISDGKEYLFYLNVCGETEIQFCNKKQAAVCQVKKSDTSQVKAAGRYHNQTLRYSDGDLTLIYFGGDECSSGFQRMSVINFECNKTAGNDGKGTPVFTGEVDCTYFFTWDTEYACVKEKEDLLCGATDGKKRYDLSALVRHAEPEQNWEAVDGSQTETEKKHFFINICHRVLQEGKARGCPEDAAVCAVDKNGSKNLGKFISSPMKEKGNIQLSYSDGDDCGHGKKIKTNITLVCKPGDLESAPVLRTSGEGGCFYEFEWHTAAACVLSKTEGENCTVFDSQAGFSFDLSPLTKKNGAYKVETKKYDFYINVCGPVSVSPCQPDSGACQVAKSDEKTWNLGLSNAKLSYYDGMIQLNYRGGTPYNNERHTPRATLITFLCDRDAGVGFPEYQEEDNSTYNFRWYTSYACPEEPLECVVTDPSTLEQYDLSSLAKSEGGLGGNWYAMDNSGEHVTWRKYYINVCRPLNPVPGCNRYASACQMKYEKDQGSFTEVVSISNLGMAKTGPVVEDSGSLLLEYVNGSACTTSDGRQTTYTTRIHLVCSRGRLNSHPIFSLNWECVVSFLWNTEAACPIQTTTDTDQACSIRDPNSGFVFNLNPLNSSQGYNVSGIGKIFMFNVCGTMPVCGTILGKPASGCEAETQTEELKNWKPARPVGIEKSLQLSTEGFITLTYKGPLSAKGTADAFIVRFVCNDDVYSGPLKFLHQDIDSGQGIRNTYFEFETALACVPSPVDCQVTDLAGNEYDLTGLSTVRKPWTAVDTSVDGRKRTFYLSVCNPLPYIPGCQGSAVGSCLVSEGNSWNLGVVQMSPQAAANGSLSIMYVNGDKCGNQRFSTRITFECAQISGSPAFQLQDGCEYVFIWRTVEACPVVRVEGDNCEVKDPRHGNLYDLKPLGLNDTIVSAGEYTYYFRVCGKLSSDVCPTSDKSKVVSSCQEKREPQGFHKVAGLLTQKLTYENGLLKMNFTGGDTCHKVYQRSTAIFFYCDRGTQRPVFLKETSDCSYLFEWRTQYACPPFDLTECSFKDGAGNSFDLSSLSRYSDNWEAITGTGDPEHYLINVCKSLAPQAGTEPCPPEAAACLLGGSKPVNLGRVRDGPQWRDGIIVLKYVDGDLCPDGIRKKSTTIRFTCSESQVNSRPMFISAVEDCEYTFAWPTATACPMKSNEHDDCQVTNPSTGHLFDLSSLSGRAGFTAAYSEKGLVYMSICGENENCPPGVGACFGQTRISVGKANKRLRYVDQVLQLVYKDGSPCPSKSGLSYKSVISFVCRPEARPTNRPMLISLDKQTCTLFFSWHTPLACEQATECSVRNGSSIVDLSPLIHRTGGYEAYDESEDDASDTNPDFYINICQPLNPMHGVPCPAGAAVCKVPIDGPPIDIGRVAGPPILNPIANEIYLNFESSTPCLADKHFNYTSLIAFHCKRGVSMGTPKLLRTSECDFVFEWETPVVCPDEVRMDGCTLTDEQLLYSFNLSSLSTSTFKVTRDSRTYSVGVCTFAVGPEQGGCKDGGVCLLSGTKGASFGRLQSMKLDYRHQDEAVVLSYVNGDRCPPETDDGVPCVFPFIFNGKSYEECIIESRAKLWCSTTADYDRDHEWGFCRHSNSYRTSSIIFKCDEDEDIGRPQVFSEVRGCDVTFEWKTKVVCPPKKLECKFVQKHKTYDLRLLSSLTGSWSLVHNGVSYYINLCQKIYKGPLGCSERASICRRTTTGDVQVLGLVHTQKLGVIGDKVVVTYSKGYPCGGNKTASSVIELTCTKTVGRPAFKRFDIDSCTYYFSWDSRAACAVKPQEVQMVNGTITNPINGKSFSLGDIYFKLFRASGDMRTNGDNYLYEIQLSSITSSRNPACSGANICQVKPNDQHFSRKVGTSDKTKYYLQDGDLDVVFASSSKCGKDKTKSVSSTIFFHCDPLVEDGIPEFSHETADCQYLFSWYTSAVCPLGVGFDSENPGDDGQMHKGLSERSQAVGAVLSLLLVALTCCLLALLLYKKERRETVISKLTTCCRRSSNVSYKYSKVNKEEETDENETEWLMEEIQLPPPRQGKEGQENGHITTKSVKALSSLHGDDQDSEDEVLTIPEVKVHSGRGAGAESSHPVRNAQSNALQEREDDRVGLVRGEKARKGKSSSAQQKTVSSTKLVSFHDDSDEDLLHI

B1: DPP-4 (protein)
chain: SRKTYTLTDYLKNTYRLKLYSLRWISDHEYLYKQENNILVFNAEYGNSSVFLENSTFDEFGHSINDYSISPDGQFILLEYNYVKQWRHSYTASYDIYDLNKRQLITEERIPNNTQWVTWSPVGHKLAYVWNNDIYVKIEPNLPSYRITWTGKEDIIYNGITDWVYEEEVFSAYSALWWSPNGTFLAYAQFNDTEVPLIEYSFYSDESLQYPKTVRVPYPKAGAVNPTVKFFVVNTDSLSSVTNATSIQITAPASMLIGDHYLCDVTWATQERISLQWLRRIQNYSVMDICDYDESSGRWNCLVARQHIEMSTTGWVGRFRPSEPHFTLDGNSFYKIISNEEGYRHICYFQIDKKDCTFITKGTWEVIGIEALTSDYLYYISNEYKGMPGGRNLYKIQLSDYTKVTCLSCELNPERCQYYSVSFSKEAKYYQLRCSGPGLPLYTLHSSVNDKGLRVLEDNSALDKMLQNVQMPSKKLDFIILNETKFWYQMILPPHFDKSKKYPLLLDVYAGPCSQKADTVFRLNWATYLASTENIIVASFDGRGSGYQGDKIMHAINRRLGTFEVEDQIEAARQFSKMGFVDNKRIAIWGWSYGGYVTSMVLGSGSGVFKCGIAVAPVSRWEYYDSVYTERYMGLPTPEDNLDHYRNSTVMSRAENFKQVEYLLIHGTADDNVHFQQSAQISKALVDVGVDFQAMWYTDEDHGIASSTAHQHIYTHMSHFIKQCFSLP
The Kd is the free concentration of one partner at which half of the binding sites on the other are occupied at equilibrium, for simple one-to-one binding. Read a low Kd as a tighter complex. Molecule B1 registered a Kd of 35.9 µM.
